tested on: Escherichia coli TOP10; test: shrunken log2 fold change of peptide-encoding DNA abundance (4.5 h post-induction vs induction); higher = less antimicrobial activity (less host growth inhibition); details: time post-induction: 4.5 h; library: site-saturation at positions 5, 18, 19, 20
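Note: peptides expressed intracellularly from a pBAD plasmid library in pooled LB shake-flask culture, induced with 0.3% L-arabinose, DNA abundance read by NGS, three biological replicates, DESeq2 with apeglm shrinkage.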

Row | Sequence | shrunken log2 fold change
1 | RRIRTRPPRLPRPRPRPEAFPRP | 0.0195
2 | RRIRYRPPRLPRPRPRPPFLPRP | -0.178
3 | RRIRMRPPRLPRPRPRPVASPRP | 0.58
4 | RRIRPRPPRLPRPRPRPEPMPRP | 0.542
5 | RRIRPRPPRLPRPRPRPARMPRP | 0.487
6 | RRIRERPPRLPRPRPRPMKQPRP | -0.0573
7 | RRIRARPPRLPRPRPRPGRNPRP | 0.419
8 | RRIRTRPPRLPRPRPRPMQKPRP | -0.00906
9 | RRIRWRPPRLPRPRPRPWQFPRP | 0.00487
10 | RRIRDRPPRLPRPRPRPSWRPRP | 0.0848
11 | RRIRYRPPRLPRPRPRPGQDPRP | -0.346
12 | RRIRMRPPRLPRPRPRPEWIPRP | -0.0024
13 | RRIRHRPPRLPRPRPRPLIYPRP | -0.569
14 | RRIRCRPPRLPRPRPRPRHAPRP | 0.451
15 | RRIRGRPPRLPRPRPRPKEAPRP | 0.948
16 | RRIRIRPPRLPRPRPRPAPQPRP | 0.363
17 | RRIRGRPPRLPRPRPRPLHMPRP | 0.379
18 | RRIRKRPPRLPRPRPRPMKGPRP | -0.156
19 | RRIRLRPPRLPRPRPRPRTYPRP | -0.319
20 | RRIRSRPPRLPRPRPRPEVPPRP | 0.0326
21 | RRIRRRPPRLPRPRPRPVPEPRP | 0.543
22 | RRIRTRPPRLPRPRPRPMMQPRP | -0.0796
23 | RRIRFRPPRLPRPRPRPHARPRP | 0.285
24 | RRIRPRPPRLPRPRPRPVNQPRP | 0.223
25 | RRIRMRPPRLPRPRPRPTNEPRP | 0.282

Row | Sequence | shrunken log2 fold change
26 | RRIRWRPPRLPRPRPRPFMTPRP | 0.183
27 | RRIRDRPPRLPRPRPRPGLEPRP | 1
28 | RRIRSRPPRLPRPRPRPPTMPRP | -0.00342
29 | RRIRLRPPRLPRPRPRPYWCPRP | -0.00992
30 | RRIRGRPPRLPRPRPRPCMEPRP | 0.831
31 | RRIRNRPPRLPRPRPRPPHYPRP | -0.245
32 | RRIRKRPPRLPRPRPRPRGCPRP | 0.128
33 | RRIRCRPPRLPRPRPRPNYCPRP | -0.3
34 | RRIRRRPPRLPRPRPRPACYPRP | 0.488
35 | RRIRTRPPRLPRPRPRPYMEPRP | 2.39
36 | RRIRMRPPRLPRPRPRPEGPPRP | 0.578
37 | RRIRQRPPRLPRPRPRPPRVPRP | 0.422
38 | RRIRTRPPRLPRPRPRPPFHPRP | 0.535
39 | RRIRARPPRLPRPRPRPYHFPRP | -0.186
40 | RRIRWRPPRLPRPRPRPEAVPRP | 1.05
41 | RRIRPRPPRLPRPRPRPGQIPRP | -0.0497
42 | RRIRHRPPRLPRPRPRPIQSPRP | -0.0918
43 | RRIRYRPPRLPRPRPRPRQGPRP | -0.074
44 | RRIRYRPPRLPRPRPRPQQRPRP | -0.261
45 | RRIRKRPPRLPRPRPRPDKCPRP | -0.142
46 | RRIRIRPPRLPRPRPRPVQMPRP | -0.675
47 | RRIRRRPPRLPRPRPRPPRKPRP | 1.5
48 | RRIRERPPRLPRPRPRPQPKPRP | -0.077
49 | RRIRERPPRLPRPRPRPDTKPRP | -0.00108
50 | RRIRRRPPRLPRPRPRPFMTPRP | 0.0665

Row | Sequence | shrunken log2 fold change
51 | RRIRERPPRLPRPRPRPHMCPRP | -0.0653
52 | RRIRHRPPRLPRPRPRPLWGPRP | -0.107
53 | RRIRWRPPRLPRPRPRPYMQPRP | -0.422
54 | RRIRSRPPRLPRPRPRPPYVPRP | -0.215
55 | RRIRYRPPRLPRPRPRPTARPRP | -0.0799
56 | RRIRPRPPRLPRPRPRPFRLPRP | -0.465
57 | RRIRKRPPRLPRPRPRPCYIPRP | -0.0235
58 | RRIRMRPPRLPRPRPRPAQGPRP | 3.7
59 | RRIRVRPPRLPRPRPRPGKRPRP | -0.00991
60 | RRIRFRPPRLPRPRPRPGLPPRP | 0.255
61 | RRIRTRPPRLPRPRPRPGTWPRP | -0.0246
62 | RRIRKRPPRLPRPRPRPIWGPRP | -0.0432
63 | RRIRWRPPRLPRPRPRPKFWPRP | 0.0806
64 | RRIRLRPPRLPRPRPRPLKQPRP | -0.0926
65 | RRIRRRPPRLPRPRPRPFKIPRP | -0.00337
66 | RRIRWRPPRLPRPRPRPCWDPRP | 0.0945
67 | RRIRSRPPRLPRPRPRPKWQPRP | 0.255
68 | RRIRMRPPRLPRPRPRPLEWPRP | 0.31
69 | RRIRVRPPRLPRPRPRPEALPRP | -0.00459
70 | RRIRLRPPRLPRPRPRPLILPRP | -0.429
71 | RRIRWRPPRLPRPRPRPDQFPRP | -0.0202
72 | RRIRLRPPRLPRPRPRPYGFPRP | 0.00785
73 | RRIRERPPRLPRPRPRPTRHPRP | 0.157
74 | RRIRFRPPRLPRPRPRPTKPPRP | -0.00249
75 | RRIRDRPPRLPRPRPRPHEMPRP | -0.0853

Row | Sequence | shrunken log2 fold change
76 | RRIRCRPPRLPRPRPRPPLNPRP | 0.212
77 | RRIRMRPPRLPRPRPRPPHYPRP | 0.728
78 | RRIRQRPPRLPRPRPRPNFQPRP | -0.198
79 | RRIRCRPPRLPRPRPRPHVVPRP | -0.137
80 | RRIRSRPPRLPRPRPRPGDLPRP | -0.091
81 | RRIRMRPPRLPRPRPRPRLKPRP | 1.82
82 | RRIRVRPPRLPRPRPRPFNGPRP | -0.15
83 | RRIRNRPPRLPRPRPRPTRHPRP | 0.162
84 | RRIRNRPPRLPRPRPRPGGRPRP | 0.0809
85 | RRIRMRPPRLPRPRPRPQWQPRP | 0.825
86 | RRIRCRPPRLPRPRPRPHMYPRP | -0.715
87 | RRIRARPPRLPRPRPRPEGQPRP | 1.2
88 | RRIRHRPPRLPRPRPRPSIVPRP | -0.0474
89 | RRIRYRPPRLPRPRPRPSKYPRP | -0.401
90 | RRIRNRPPRLPRPRPRPALHPRP | -0.296
91 | RRIRHRPPRLPRPRPRPKDQPRP | -0.172
92 | RRIRFRPPRLPRPRPRPVTFPRP | -0.213
93 | RRIRHRPPRLPRPRPRPCYLPRP | -0.897
94 | RRIRSRPPRLPRPRPRPDLDPRP | 0.152
95 | RRIRYRPPRLPRPRPRPATSPRP | -0.452
96 | RRIRPRPPRLPRPRPRPQKMPRP | -0.201
97 | RRIRMRPPRLPRPRPRPVLIPRP | -0.0938
98 | RRIRFRPPRLPRPRPRPNGEPRP | 0.0684
99 | RRIRARPPRLPRPRPRPVTMPRP | 0.102
100 | RRIRLRPPRLPRPRPRPPGFPRP | 0.278

Row | Sequence | shrunken log2 fold change
101 | RRIRYRPPRLPRPRPRPRTHPRP | -0.318
102 | RRIRNRPPRLPRPRPRPWMCPRP | -1.23
103 | RRIRIRPPRLPRPRPRPRDVPRP | 0.000408
104 | RRIRRRPPRLPRPRPRPPYFPRP | 0.442
105 | RRIRARPPRLPRPRPRPVPEPRP | 0.499
106 | RRIRTRPPRLPRPRPRPPGCPRP | 0.528
107 | RRIRERPPRLPRPRPRPVMEPRP | -0.0566
108 | RRIRQRPPRLPRPRPRPLWAPRP | 0.00344
109 | RRIRFRPPRLPRPRPRPSVRPRP | -0.302
110 | RRIRSRPPRLPRPRPRPCTMPRP | -0.154
111 | RRIRSRPPRLPRPRPRPISYPRP | -0.117
112 | RRIRFRPPRLPRPRPRPWTCPRP | -0.126
113 | RRIRTRPPRLPRPRPRPHPFPRP | -0.00172
114 | RRIRERPPRLPRPRPRPKSNPRP | -0.472
115 | RRIRARPPRLPRPRPRPVENPRP | 0.25
116 | RRIRMRPPRLPRPRPRPWNMPRP | -0.0747
117 | RRIRPRPPRLPRPRPRPHESPRP | 0.0891
118 | RRIRHRPPRLPRPRPRPHWNPRP | -0.407
119 | RRIRHRPPRLPRPRPRPGIMPRP | -0.566
120 | RRIRWRPPRLPRPRPRPKKCPRP | 0.18
121 | RRIRYRPPRLPRPRPRPDWIPRP | -0.589
122 | RRIRQRPPRLPRPRPRPPRFPRP | 1.51
123 | RRIRVRPPRLPRPRPRPYQSPRP | -0.0308
124 | RRIRFRPPRLPRPRPRPLESPRP | -0.00313
125 | RRIRKRPPRLPRPRPRPFNNPRP | -0.0235

Row | Sequence | shrunken log2 fold change
126 | RRIRLRPPRLPRPRPRPINRPRP | 0.0141
127 | RRIRSRPPRLPRPRPRPWLVPRP | 0.0191
128 | RRIRERPPRLPRPRPRPSAWPRP | 0.0177
129 | RRIRCRPPRLPRPRPRPVMIPRP | -0.0658
130 | RRIRGRPPRLPRPRPRPEGVPRP | 1.48
131 | RRIRCRPPRLPRPRPRPSDWPRP | -0.0723
132 | RRIRYRPPRLPRPRPRPFIAPRP | -1.12
133 | RRIRMRPPRLPRPRPRPWECPRP | 1.1
134 | RRIRPRPPRLPRPRPRPWRGPRP | 0.344
135 | RRIRMRPPRLPRPRPRPMDLPRP | -0.0207
136 | RRIRKRPPRLPRPRPRPDDVPRP | 2.03
137 | RRIRSRPPRLPRPRPRPYSCPRP | -0.386
138 | RRIRKRPPRLPRPRPRPLWRPRP | 0.609
139 | RRIRHRPPRLPRPRPRPQIQPRP | -0.0515
140 | RRIRHRPPRLPRPRPRPQWHPRP | -0.299
141 | RRIRWRPPRLPRPRPRPYENPRP | -0.19
142 | RRIRNRPPRLPRPRPRPAFFPRP | 0.0459
143 | RRIRFRPPRLPRPRPRPVTWPRP | -0.271
144 | RRIRPRPPRLPRPRPRPAHYPRP | 0.02
145 | RRIRGRPPRLPRPRPRPPSEPRP | 0.856
146 | RRIRWRPPRLPRPRPRPEFLPRP | 0.374
147 | RRIRHRPPRLPRPRPRPQTAPRP | 0.00296
148 | RRIRDRPPRLPRPRPRPVCFPRP | 0.599
149 | RRIRFRPPRLPRPRPRPFNYPRP | -0.183
150 | RRIRMRPPRLPRPRPRPAQMPRP | -0.0763
